Our source for the protein production values is a protein production outcome set (Wang et al. 2014).

This data set in a line: label from the status in PepcDB records.

For the sequence “MTIVLIAFALYLLATALLTWAVLRDGNQSPARWLAPALAAVALHAGYHVLVAVRTAGGPDMHFFAALSLCGLGMAALTAVFGGRGRMAAVGVVVFPLSAILLASYHAYGHEPSSDLGWRLELHAWLALLAYATLGIAALLAIMLWLQERALRRRDFHSWLRALPPLTELETLLFRTITVGFVLLSLTLLTGLLFVQDFLAQRLLQKTVLSILSWIVFGALLIGRWRNGWRGTKAVHWTLTAMALLVLSFFGSKFVIELVLGPR”, the protein production result is “failed”. “MTIWLLQLVLVIALCNLCGRLAERLGQCAVVGEIAAGLLLGPSLFGVIAPSFYDLLFGPRTLSAMAQVGEVGLILLMFQIGLHMELSETLRGKRWRIPVAIAAGGLIAPAAIGMIVAIVSKDTLASDVPALPYILFCGVALAVSAVPVMARIIDDLALGAMVGARHAMSAAMLTDALGWMLLATIASLSSGPGWAFAHMLVSLLVYLVLCALLVRFVVRPVLARLASTAHATRDRLAVLLCFVIASALATSLIGFHSAFGALAAALFVRRVPGVAKEWRDNVEGFVKLVLMPVFFACAGLHASVGTIDDAASWMWCGVFLVGGFIGKFGGSYLGARGTGLAPHDAMLASSLMNTRGLMELIVLSIGLQMQILPPKVYTILVVFALVTTALTAPLVRFTLRMQTRAMSQQAA”: the protein production result is listed as “failed”. With “MTIYAAGLPAFLSYFSIGLVCFAIFSTIYTRLTPHEEVELIKAGNISAVVAFLGALIGFSLPLASAAAHSVSLPDYVIWAAIGLLVQVLAFYIAKLTMTDLHLKITEGNVAAGLWSGGIAVVIGTLNAACMAY”, the protein production entry was “failed”. As to “MTIYNQAIESYDEKMAKDVIMLAGRILLESGAEGSRVEDTMTRIAITLGHKESNSFVTNTVINFMLHDESYPRMYRIRTRDTNLHRISRTNGISRRLALGDISLEDAFQELQKIYQEQSIKNHYLFYKFIAAAVISVSFLYLQGGHLTDVLTALLAGSFGYIVVEILQQKLHAQFIPEFMGALVIGLVTIIGHNLIPGGSISTIIIAAVMPIVPGVLITNAIQDLFGGHMLMFTTKSLEALVTAFGIGAGVSTVLIIF”, the protein production result is “failed”.

For “MTKFNWHESAEKKWDSSAEFWNQNSQEMWDSGSRSTIIPFFEQYVKKEAQVLDVGCGDGYGTYKLSRAGYKAVGVDISEVMIQKGKERGEGPDLSFIKGDLSSLPFENEQFEAIMAINSLEWTEEPLRALNEIKRVLKSDGYACIAILGPTAKPRENSYPRLYGKDVVCNTMMPWEFEQLVKEQGFKVVDGIGVYKRGVNEKMLGQLSTELQQSLTFLWVFMLKKHKEMKEFLGGK”, the protein production result is “failed”.

For the sequence “MTKIACVIVTYNRKQLLEEALNSVLIQTESPEYVFVIDNASTDGTEKYINDKFNFDNRQWHYVRCSQNLGGSAGFAQGMRLALQTDCSWISISDDDAIFEPGYFAALRKGIKQYPEQSVFSGSVLLPDGKHDMMHREVITNSATLTVRCVTDETYKHDFSYDIFSFVGILLSRQVIEAIGLPEQDYFIRFDDFEYAVRALKFGRFMNLSALEHHHHHH”, the protein production result is recorded as “failed”.

With “MTKKQKEILFCDYFEEWVEVYKVGAIAKITLAKYYNAAKQLRDLCPKLFISDFDRREYQRIINVYAETHEKQTVKDFHHHVKACIKDLFHDGLIDKDPTYRVVIKGAEPTRAKKRKFLQKEELSKLLQSLDMSQIGFGWFVMLVAKTGMRYAEALAITPADFDWTAQTISINKTWDYKYNKGFAKTKTLSSVRTIKIDWQIVGQFKPLIKDFPEDEPIFVEKFGDGTYKRQFNSTINNFLAVKCNETGITQISFHALRHTHASVLLAEGVSIHTISARLGHADVGVTQETYAHVLDELQKKDDQKMLSVLMQIA”, the protein production result is recorded as “failed”.

Turning to “MTKLEQIQQWTAQHHASMTYLSNPKTIEYLTGFGSDPIERVLALVVFPDQDPFIFAPALEVEVIKETGWQFPVIGYLDHENPWAMIADQVKQRHVNPEHVAIEKGQLQVARMEALAAQFSAPSFDLDITSFIEHMR”, the protein production entry is on record as “not failed”. For “MTKLINFLAEYQREIESQPIELDLALFSRLVGLPFEAVLTQPSAPLVEACMKLIEFVDNENYLILPADRQMLEQIAFSNRYQSVQICDVVQGPHRFLAATFVLSKTTKVIAFRGPNGTLLSWKADLHFSFSSINKLKIQAHQYLLQALQHDNQNIYCVGFSQGASIAALACMDISDTHRHRIQTIIFDSPGLPDDHYQSPIPIIELVPPLSLFALVGEHPFHQITISSSSTGIWQHDLYSWEADSHGEFAKNIGITNPTTIQHQFIQLLPSNITDENIDRTLNVAISIFSQLNFHSTSELIKHWNQFNALIQTEITAENIVVKTAILRLQKLIFKNAALNLQSIPLN”, the protein production result was “failed”. As to “MTKMNRETVITEALDLLDEVGLDGVSTRRLAKRLGVEQPSLYWYFRTKRDLLTAMAQAAMAPHAAEPLPEPGEDWHGWFLRNTRSFRRTLLARRDGARLHAGSRPTADLDRVRRKMDFLVASGVPERHAQMAMLAAGRFTVGCVLEEQAETGAGDTADLPADVPEIDHESAFEAGLALITDGLVRHVDAR”, the protein production entry is “not failed”. As for “MTKNNILNNKITKVILFRICFIIAITTALVCGLKLNIINDGFWHIKVGEYIIKNRVIPREDIFSWYGIENKLKWISHEWLFGVIAYLVYKIKGFTSVIIFSTIVNCSTALLVYKFALIRNKNKVVSLIIMWVYIFGDFYDITYRPVLISKLILLCSFILLEKKKYLFALIVLILGVNIHGGIYPLYLMIFAYYTIPFSYKYLIFSLITVLINPYGYNLYKYTYLSMKNIDINRYINEWCITPIYDYKVALIIICITVCICTVSKIKFKDFLFCGALIILAISAKRHVDVIYLFVLPVISLYFNSFYFDFFMKFVSRIKPEKLKSIIPKLNYITCGFLIVVMIVKSSLCIKQYFFDTHFHNFEYITNDSENPIKACNFINSHQEIKNSRTFNDYNSSPYIIFRGIKTFVDSRQDLFTYNFNKTNAFVDQIKALNNYDYMIYVFKKYNIKYAILRNDMPNTRLLRNTDLIYIIYEDRDYSIFQINRNKLKSSNQRGV”, the protein production entry was “failed”.

For the sequence “MTKPILKKKERVDQLFSTDVKIIQNKEVFSYSIDSVLLSRFPKIPSRGLIVDLCSGNGAVGLFAATRTKAKIIEVELQERLADMAQRSIQLNDLTNQVSMIRDDLKNLLDHVPRSKVDLILCNPPYFKAAETSKKNLSEHYLLARHEIATNLEEICKISQQVLKTNGRLAMVHRPDRFLEIIDTFKKYKLAPKRLQFVYPKLGKDANMLLIETIKDGSPNGMKILPPLIVHKDNGDYTDNIHEIYFGKGHQAYMYVLKCADDSLYTGYTTDIKKRLATHNAGKGAKYTRARLPVELIYVEQFNHKNAAMSAEGKLKQKTRAQKLHYIEEHQHINLVSQF”, the protein production result was “failed”. To “MTKQPDLLKVDWSAIPAPDDDGAAAHLPGARIQPVALPATDGSSVTLSSLPGRTVLFIYPRTGVPGQISLVDDWDMIPGARGCTPQTCSFRDLFTDLKTAGADAVFGLSTQSSAYQSEMATRLHLPFPVLSDESLELTRALNMPTMQVAGMTLLKRMALIIDDGRISHVFYPVFPPDRNAGDVLEWLKANPR” belongs “failed”; to “MTKQQKGFVTGQPTGALNLSDILDSEELGEYHLMSAAIITGNTVDFSGLGAGPDDPFEIASITKIFTGELLRLQIERGEITESTAVGDVLGERVADSLIRDITVEELANHTSGLPRLGNVGLRPFMATFFDKNPYKDLSADRVISISTTSKLNSRGEFHYSNLGFALLGQVLARNAGLTFDQLLDRDLLAPLNLNNTKLMTPESLAQDAPQGFSTPGKQVEAWEMDGFLPAAGLRSTARDMAVFCQYLFTKGPAPFTWQSLESAPEIVWHNGESFGYSSVLFFNTATTTAIFVAADVATSVFPIGHELLMANSTRQESKLEHHHHHH”, “failed”; to “MTKRFKLKISRILSFKSCRLKDPSSLPFNPVSSSLRRTSPLVNSSADVTTVPQRRRSSFRLHVLTVFGCGRSSTPLDVDLRNSPVLSPPQTPTFQWESEGKWHVIAQVTEEEYETPRRKIYNGGSEKDNRRRLKKKEKSNSRRRGSISSAEEETDRESLLPSSTNLSPEYSSSELPRVTRRPRQLLKKAVIEEESESSSPPPSPARLSSFVQRLMPCTMAAAVMVEGVAVVKKSEDPYEDFKGSMMEMIVEKKMFEVAELEQLLSCFLSLNAKRHHRAIVRAFSEIWVALFSGGSGGGRRSSSFSSVRLSDYDEC”, “failed”. On to “MTKTAKVNDIVRDWVVLDAKDKVFGRLITEIAVLLRGKHRPFYTPNVDCGDFVVVINANKVKFSGMKLEDKEYFTHSGYFGSTKSKTLQEMLEKAPEKLYHLAVRGMLPKTKLGKAMIKKLKVYRDDKHPHTAQTSKKDAK”, for which the protein production entry is reported as “failed”.
